Where no end group is shown, it is not given here. [ ]: non-standard residue; d: D form. The star is where a group is joined. Biotin = O=C1N[C@H]2[C@H](CS[C@H]2CCCCC(=O)*)N1; pY = N[C@@H](Cc1ccc(OP(=O)(O)O)cc1)C(=O)O
Assays:
[1] = target: phosphorylated NKG2A C-term peptide (C-terminal ITIM) (human); experiment: SPR (BIAcore), 25 RU phosphopeptide on streptavidin chip, GST fusion injected
[2] = target: phosphorylated NKG2A N-term peptide (N-terminal ITIM) (human); experiment: as above
[3] = target: phosphorylated NKG2A N-term peptide (N-terminal ITIM) (human); experiment: SPR (BIAcore); upper end of the range, tied by Table 4 to GST-SHP-1.SH2(N+C) and the N-terminal ITIM (4.80)
[4] = target: phosphorylated NKG2A N-term peptide (N-terminal ITIM) (human); experiment: SPR (BIAcore); lower end of the range, tied by Table 4 to GST-SHP-2.SH2(N+C) and the N-terminal ITIM (1.38)
[5] = target: T1, human NKG2A on NKL, M117-14 and 7-10 cells (human, UniProt P26715 1-233); experiment: immunoprecipitation with anti-NKG2A and anti-CD94 mAb
T1 construct: whole, on cells

[6] = target: T2, GST-SHIP.SH2 fusion protein (murine, UniProt Q9ES52 8-104); experiment: SPR (BIAcore) with recombinant GST fusion protein
T2 construct: also called SH2 domain of SHIP; not shown: Glutathione S-transferase (GST) fusion partner
T2 sequence (looked up): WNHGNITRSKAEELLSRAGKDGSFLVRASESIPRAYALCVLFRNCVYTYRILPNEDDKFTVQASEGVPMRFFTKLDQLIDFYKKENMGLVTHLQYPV
Procedure: Fusion proteins and surface plasmon resonance analysis. Surface plasmon resonance (SPR) measurements were performed on a BIAcore™ (Pharmacia). The GST-SHP-1.SH2(NC), GST-SHP-1.SH2(N), GST-SHP-1.SH2(C), GST-SHIP.SH2 fusion proteins generated from the murine phosphatase cDNA, were purified from DH5α lysates. Briefly, overnight culture at 37° C. in LB medium containing 50 μg/ml ampicillin was diluted 1/10 in fresh medium, and incubated until the absorbance at 600 nm reaches 1-2. At that point, IPTG was added (1 mM), and incubation continued for an additional 4 hours at 37° C. After centrifugation, bacteria pellet was resuspended in TENGN buffer (50 mM Tris pH 8, 1 mM EDTA, 10% glycerol, 1% NP40, 1 mM DTT, 1 mM PMSF, 10 μg/ml aprotinin and 10 μg/ml leupeptine). Bacteria were lysed by sonication. After centrifugation, supernatant was incubated with Glutathione-Sepharose 4B beads (Pharmacia) overnight at 4° C. with slow shaking. After 3 washes with 50 mM Tris pH 8, elution of the fusion protein was carried out using 50 mM Tris pH 8 supplemented with 10 mM reduced glutathione. […] Protein purity was assessed by 12.5% SDS-PAGE, and Coomassie blue staining. […] Then, biotinylated peptides were injected, and their binding to streptavidine-coated microchips was assessed using anti-phosphotyrosine 4G10 mAb (UHI).

[7] = target: T3, SHIP polyinositol phosphatase from RBL-2H3 cell lysates (rat (cell line RBL-2H3), UniProt P97573 1-1190, limits assumed); experiment: cell lysate adsorption to peptide beads, immunoblot (RBL-2H3), FIG. 15A
T3 construct: Detected by immunoblot with anti-SHIP antiserum
T3 sequence (looked up): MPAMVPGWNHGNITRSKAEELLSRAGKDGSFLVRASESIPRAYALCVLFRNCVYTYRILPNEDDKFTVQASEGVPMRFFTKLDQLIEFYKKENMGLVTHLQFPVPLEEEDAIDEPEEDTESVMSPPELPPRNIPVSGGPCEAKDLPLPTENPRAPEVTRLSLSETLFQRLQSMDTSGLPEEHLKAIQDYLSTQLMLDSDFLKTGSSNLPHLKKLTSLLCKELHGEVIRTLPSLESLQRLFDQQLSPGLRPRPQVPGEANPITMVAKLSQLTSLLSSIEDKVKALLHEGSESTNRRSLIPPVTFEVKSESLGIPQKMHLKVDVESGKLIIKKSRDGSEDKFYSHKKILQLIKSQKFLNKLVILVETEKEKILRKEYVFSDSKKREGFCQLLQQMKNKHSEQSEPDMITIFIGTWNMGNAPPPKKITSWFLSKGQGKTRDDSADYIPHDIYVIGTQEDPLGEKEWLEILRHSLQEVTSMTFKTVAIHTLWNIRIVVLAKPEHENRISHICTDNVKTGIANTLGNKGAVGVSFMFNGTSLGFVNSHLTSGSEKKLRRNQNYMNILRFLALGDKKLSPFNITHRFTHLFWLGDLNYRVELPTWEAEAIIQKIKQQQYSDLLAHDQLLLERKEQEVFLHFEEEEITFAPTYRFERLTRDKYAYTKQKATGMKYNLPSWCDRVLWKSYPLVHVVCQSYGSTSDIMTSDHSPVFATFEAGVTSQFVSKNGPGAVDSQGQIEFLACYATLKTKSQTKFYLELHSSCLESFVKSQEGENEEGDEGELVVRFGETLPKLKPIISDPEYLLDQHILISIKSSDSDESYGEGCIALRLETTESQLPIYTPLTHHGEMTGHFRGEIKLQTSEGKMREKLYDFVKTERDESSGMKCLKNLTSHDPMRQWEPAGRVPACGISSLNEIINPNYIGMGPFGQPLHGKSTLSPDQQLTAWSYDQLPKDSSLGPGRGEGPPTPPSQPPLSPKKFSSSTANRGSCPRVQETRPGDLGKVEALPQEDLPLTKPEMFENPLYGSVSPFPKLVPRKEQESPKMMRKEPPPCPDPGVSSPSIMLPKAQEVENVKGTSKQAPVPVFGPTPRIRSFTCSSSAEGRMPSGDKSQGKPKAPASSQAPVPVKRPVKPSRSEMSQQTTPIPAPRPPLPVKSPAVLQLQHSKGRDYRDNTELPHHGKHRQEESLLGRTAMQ
Procedure: In an attempt to characterize the function of these putative ITIMs, cell lysates were incubated with phosphorylated and nonphosphorylated synthetic peptides corresponding to the N-terminal and the C-terminal I/VxYxxL stretches present in NKG2A intracytoplasmic domain. Cell lysates absorbed to peptides were then assayed by immunoblotting for the presence of the phosphatases known to interact with phosphorylated ITIMs, i.e. the protein tyrosine phosphatases SHP-1 and SHP-2, as well as the polyinositol phosphate phosphatase, SHIP. In parallel, lysates adsorption were performed using control peptides corresponding to ITIMs present in Ig-like ITIM bearing receptors such as human KIRs (p58.2/CD158b, a receptor for HLA-Cw3) and mouse FcγRIIB, as well as in mouse lectin-like ITIM-bearing receptor, such as Ly-49A.
As shown in FIG. 15A (lanes 1 and 2), both N- and C-terminal I/VxYxxL stretches present in NKG2A associate with SHP-1 and SHP-2 in vitro, but no binding to SHIP was detected. Similar patterns of association were obtained using the phosphorylated ITIM peptides of […] and p58.2 KIR (FIG. 15A, lanes 3 to 5). In contrast, FcγRIIB phosphorylated ITIM peptides also associate with SHIP (FIG. 15A, lane 6). No association of phosphatases with nonphosphorylated peptides corresponding to FcγRIIB (FIG. 15A, lane 7) and NKG2A N- and C-terminal I/VxYxxL stretches was detected. When nonphosphorylated and phosphorylated peptides were used to adsorb lysates prepared from ³⁵S methionine/cysteine-labeled cells, only two bands around 64 and 68 kDa selectively associate with both phosphorylated NKG2A N- and C-terminal I/VxYxxL stretches, as compared to nonphosphorylated ones (FIG. 15B). The 64 and 68 kDa proteins which bind to phosphorylated NKG2A peptides correspond to SHP-1 and SHP-2 apparent molecular weight respectively, supporting the immunoblotting results. Therefore, our results define the two NKG2A I/VxYxxL stretches as ITIMs which appear to function similarly to other ITIMs present in inhibitory receptors for MHC class I molecules, i.e. KIRs and Ly-49 molecules. Using recombinant soluble tandem SH2 domains of SHP-1 and SHP-2, we confirmed by surface plasmon resonance that both NKG2A ITIM phosphopeptides directly associate with the SH2 domains of SHP-1 and SHP-2, but not with the SH2 domain of SHIP (FIG. 16).

[8] = target: T4, SHP-1 protein tyrosine phosphatase from RBL-2H3 cell lysates (rat (cell line RBL-2H3), UniProt P81718 1-613); experiment: cell lysate adsorption to peptide beads, immunoblot (RBL-2H3)
T4 construct: Detected by immunoblot with anti-SHP-1 mAb

[9] = target: T5, SHP-2 protein tyrosine phosphatase from RBL-2H3 cell lysates (rat (cell line RBL-2H3), UniProt P41499 2-593); experiment: as above
T5 construct: Detected by immunoblot with anti-SHP-2 mAb
T5 sequence (looked up): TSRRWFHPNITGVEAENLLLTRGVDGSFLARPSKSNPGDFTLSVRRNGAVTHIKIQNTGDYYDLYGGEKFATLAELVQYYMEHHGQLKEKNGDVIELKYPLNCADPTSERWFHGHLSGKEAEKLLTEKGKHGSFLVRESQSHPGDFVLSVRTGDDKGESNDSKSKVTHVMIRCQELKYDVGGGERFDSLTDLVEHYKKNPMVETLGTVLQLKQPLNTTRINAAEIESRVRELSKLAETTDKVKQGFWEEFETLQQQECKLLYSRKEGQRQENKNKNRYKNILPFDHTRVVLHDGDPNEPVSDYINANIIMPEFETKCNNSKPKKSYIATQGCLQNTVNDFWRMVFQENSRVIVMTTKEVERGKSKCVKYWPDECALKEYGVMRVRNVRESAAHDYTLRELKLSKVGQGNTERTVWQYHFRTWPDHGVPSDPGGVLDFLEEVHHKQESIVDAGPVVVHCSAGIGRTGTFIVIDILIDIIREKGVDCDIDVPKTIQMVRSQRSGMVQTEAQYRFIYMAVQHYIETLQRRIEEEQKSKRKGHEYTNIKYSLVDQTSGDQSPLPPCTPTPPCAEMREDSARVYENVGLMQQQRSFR

[10] = target: T3, SHIP polyinositol phosphatase from …; experiment: as above

T4 sequence (P81718 whole entry): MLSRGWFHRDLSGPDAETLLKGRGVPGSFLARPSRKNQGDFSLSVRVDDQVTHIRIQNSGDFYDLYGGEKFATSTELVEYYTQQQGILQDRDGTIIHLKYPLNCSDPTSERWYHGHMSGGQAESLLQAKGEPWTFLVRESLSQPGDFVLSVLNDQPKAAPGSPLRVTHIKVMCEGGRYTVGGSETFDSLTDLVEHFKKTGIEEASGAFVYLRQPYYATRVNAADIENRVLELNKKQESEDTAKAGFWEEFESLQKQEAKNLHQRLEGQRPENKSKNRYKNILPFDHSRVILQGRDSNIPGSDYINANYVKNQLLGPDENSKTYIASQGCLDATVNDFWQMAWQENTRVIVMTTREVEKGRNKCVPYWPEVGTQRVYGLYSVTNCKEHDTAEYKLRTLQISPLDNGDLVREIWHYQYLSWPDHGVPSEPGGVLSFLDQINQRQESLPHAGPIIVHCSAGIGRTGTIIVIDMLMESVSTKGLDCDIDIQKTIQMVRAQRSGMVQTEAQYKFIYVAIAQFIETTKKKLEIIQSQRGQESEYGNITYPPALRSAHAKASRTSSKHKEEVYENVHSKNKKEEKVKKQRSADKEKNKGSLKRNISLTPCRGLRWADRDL
T1 sequence (P26715 whole entry): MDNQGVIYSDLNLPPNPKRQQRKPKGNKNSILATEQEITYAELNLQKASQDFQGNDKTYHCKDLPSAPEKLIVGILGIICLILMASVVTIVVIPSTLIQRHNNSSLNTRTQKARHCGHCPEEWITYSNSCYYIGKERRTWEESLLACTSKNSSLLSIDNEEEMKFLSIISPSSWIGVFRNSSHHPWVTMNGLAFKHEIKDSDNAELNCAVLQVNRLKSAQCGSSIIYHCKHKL

**Q.** With “GST-SHP-1.SH2(N+C) fusion protein (from UniProt P29351 1-217)” as the molecule, how does the Kd [1] read?
**A.** Its Kd is 2.83 nM.

**Q.** And the koff [1]?
**A.** Its koff is 0.00117 s⁻¹.

**Q.** What about the kon [1] of the same molecule?
**A.** The kon was 410000 M⁻¹ s⁻¹.

**Q.** And the Kd [2]?
**A.** The Kd was 4.8 nM.

**Q.** And the koff [2]?
**A.** Its koff is 0.00189 s⁻¹.

**Q.** And the kon [2]?
**A.** The kon was 390000 M⁻¹ s⁻¹.

**Q.** What about the Kd [3] of the same molecule?
**A.** Its Kd is 1 to 5 nM.

**Q.** For “GST-SHP-2.SH2(N+C) fusion protein (from UniProt P35235 1-220)”, which Kd [1] is on record?
**A.** Its Kd is 1.57 nM.

**Q.** What about the koff [1] of the same molecule?
**A.** The koff was 0.00132 s⁻¹.

**Q.** And the kon [1]?
**A.** The kon was 840000 M⁻¹ s⁻¹.

**Q.** And the Kd [2]?
**A.** Its Kd is 1.38 nM.

**Q.** What about the koff [2] of the same molecule?
**A.** Its koff is 0.00142 s⁻¹.

**Q.** And the kon [2]?
**A.** The kon was 1.03e+06 M⁻¹ s⁻¹.

**Q.** And the Kd [4]?
**A.** The Kd was 1 to 5 nM.

B1: human CD94 on NKL, M117-14 and 7-10 cells (receptor, UniProt Q13241 1-179, looked up)
chain: MAVFKTTLWRLISGTLGIICLSLMSTLGILLKNSFTKLSIEPAFTPGPNIELQKDSDCCSCQEKWVGYRCNCYFISSEQKTWNESRHLCASQKSSLLQLQNTDELDFMSSSQQFYWIGLSYSEEHTAWLWENGSALSQYLFPSFETFNTKNCIAYNPNGNALDESCEDKNRYICKQQLI
notes: whole, on cells
**Q.** Does B1 bind [5]?
**A.** Result: binds

**Q.** Which results are given for Biotin-RPSQRPKTPPTDIIV[pY]TELPNAEP (also called p58.183.2; p58.133.2) [phosphorylated p58.2.2 peptide (C-terminal KIR ITIM)]?
**A.** binding result [6]: no binding; binding result [7]: no binding

**Q.** Does Biotin-DEQDPQEAT[pY]AQLN (also called mutated KIR ITIM peptide) [phosphorylated p58.2.1-V301A peptide] bind [8]?
**A.** Result: no binding

**Q.** Does Biotin-DEQDPQEAT[pY]AQLN (also called mutated KIR ITIM peptide) [phosphorylated p58.2.1-V301A peptide] bind [9]?
**A.** Result: no binding

B2: phosphorylated FcγRIIB-I260A peptide (peptide)
peptide: Biotin-KTEAENTAT[pY]SLLK
notes: also called FcγRIIB 1-I260A; mutated FcγRIIB ITIM
**Q.** Which results are given for B2?
**A.** binding result [8]: no binding; binding result [9]: no binding

B3: phosphorylated p58.2.1 peptide (N-terminal KIR ITIM) (peptide)
peptide: Biotin-DEQDPQEVT[pY]AQLNH
notes: also called p58.183.1; phosphorylated N-terminal KIR ITIM peptide
**Q.** Does B3 bind [6]?
**A.** Result: no binding

**Q.** Does B3 bind [7]?
**A.** Result: no binding

B4: non-phosphorylated NKG2A N-term peptide (peptide)
peptide: Biotin-MDNQGVIYSDLNL
notes: also called nonphosphorylated NKG2A N-terminal I/VxYxxL stretch
**Q.** Does B4 bind [10]?
**A.** Result: no binding

Reference: US20040038894A1, “Compounds for modulating cell negative regulations and biological applications thereof” (INSTITUT NATIONAL DE LA SANTE ET DE LA RECHERCHE MEDICALE …, priority 1996, published 2004)
